Results on 5 compounds are retold here after patent publication US12616760B2, “Synthetic cyclic peptide mimetics” (priority 2020, dated 2026).

Numbered stars: 1 amine (or outer) side, 2 acyl side, 3 side chain; on linkers, the order of the positions; unused ones are H or OH. Square brackets hold non-standard residues; d marks the D form. Peptide text beside a SMILES is read from it. * marks the point of attachment. NOTA = O=C(O)CN1CCN(CC(=O)O)CCN(CC(=O)*)CC1; azaPhe = O=C(N(Cc1ccccc1)N[*:1])[*:2]; Nle = CCCC[C@H](N)C(=O)O; azaGly = NNC(=O)O

In one data set the target is T1, Aβ40 (Homo sapiens, UniProt P05067).
T1 construct: The extent of Aβ40 aggregation in the presence of increasing concentrations of azacyclopeptides
T1 sequence (P05067 672-711 limits assumed): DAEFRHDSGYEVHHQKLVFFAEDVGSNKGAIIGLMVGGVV
Description: Thioflavin T (ThT) fluorescence assay of Aβ40 aggregation. It counts as biochemical. The following applies: ThT, 10 μM soluble Aβ40. On the procedure:
Amyloid generation can be identified and quantified using the thioflavin T (ThT) fluorescence dye assay. […] Agents that bind and inhibit aggregation of Aβ diminish ThT fluorescence relative to untreated Aβ. The extent of Aβ40 aggregation in the presence of increasing concentrations of azacyclopeptides and azasulfurylcyclopeptide 55 was evaluated by the ThT assay. Fluorescence of Aβ40 that was aged for 48 h was used as control, defined as 0% anti-amyloidogenic activity, and compared with fluorescence in the presence of cyclic peptide mimics at increasing concentrations to measure anti-amyloidogenic activity.

A further data set concerns CL2006 C. elegans strain. Also noted: species or system Caenorhabditis (C.) elegans. To be noted: in vivo. An excerpt: Compound 3 was used in two in vivo transgenic Caenorhabditis (C.) elegans models expressing human Aβ42. The CL2006 C. elegans strain produces constitutively a body-wall muscle-specific Aβ42, the aggregation of which causes age-dependent paralysis, motility dysfunction and consequently short lifespan. The CL2355 strain expresses a temperature-inducible pan-neuronal Aβ42, accumulation of which leads to deficits in chemotaxis, associative learning and thrashing in liquid. The CL2006 mutant and control CL802 wild type worms had respective lifespans of 13.6 and 15.6 days (P<0.005, FIG. 3A).

Another data set has as its system Aβ species. Description: PET imaging of ^64Cu-conjugates in 5×FAD mice. The class given is in vivo. To be noted: for Aβ uptake relative to ^64Cu-1-NOTA / Aβ uptake (activity in the Aβ species): 6-month old 5×FAD mice; for Aβ uptake (activity in the Aβ species): 20 h post-injection. Here is the method:
(§1) Images were taken 3 weeks apart on the same 5×FAD mouse for ^64Cu-conjugate 43 and ^11C-PIB (FIGS. 1B and C) using the 2-(4′-[^11C]methylaminophenyl)-6-hydroxybenzothiazole (^11C-PIB) compound. Use of ^11C-PIB is limited to 1 h due to short half-life (t1/2=20.4 min). […] In control 44 day-old WT mouse at 1-day post-injection of ^64Cu-conjugate 43, brain uptake is very low (FIG. 1D). Non-transgenic littermates (labeled as wild type (WT) controls in the text and FIG. 1D) were housed in the same manner as 5×FAD mice and used for comparison.
(§2) Amyloid plaque detection was evaluated in 4.5-7-month-old Tg [5×FAD] mice and age-matched wild-type controls using the ^11C-PIB compound. 5×FAD mice carry both mutant human APP(695) with the Swedish (K670N, M671L), Florida ([…]), and London (V717I) Familial Alzheimer's Disease (FAD) mutations and human PS1 harboring two FAD mutations, M146L and L286V. 5×FAD mice develop plaque formation beginning at 2 months and cognitive deficits at 4-6 months. […] Amyloid beta of ^64Cu-conjugate 40 in hippocampus at 1 h post injection (1.285±0.034% ID/g) was similar to that of ^11C-PIB (1.038±0.028% ID/g. FIG. 1) in the cortex.
(§3) Red and blue colours represent respectively highest and zero uptake. […] Different intensity scales were used for PET images. […] Images were taken 3 weeks apart on different mouse for ^64Cu-43 and ^11C-PIB. Co-registration of experimental image data with brain mask to mouse atlas space was achieved to identify volumes of interest. 1. Striatum; 2. Cortex; 3. Hippocampus; 4. Thalamus; 5. Cerebellum; 6. Basal forebrain septum; 7. Hypothalamus; 8. Amygdala; 9. Brain stem; 10. Central gray; 11. […] Olfactory bulb; 13. Midbrain; 14.

A short description of data set [1]: PET imaging and biodistribution, formulation tests in Balb/c mice. It counts as in vivo. Here is the method:
Different formulations were tested with the ^64Cu-1-NOTA conjugate to investigate the solubility of the PET tracer in vivo and select the best formulation for PET imaging studies. […] For further in vivo studies, 8% DMSO and 9% sucrose (for azaconjugates) were used.

Data set [2] can be described thus: PET imaging of ^64Cu-conjugates in 5×FAD mice. To be noted: mouse, in vivo, total radioactivity. The class given is in vivo. Here is the method: as §1, §2, §3

Turning to `CCCC[C@@H]1NC(=O)[C@@H](CC(C)C)NC(=O)[C@H](CCCCN)NC(=O)NNC(=O)[C@H](Cc2c[nH]cn2)NC(=O)[C@@H](Cc2c[nH]c3ccccc23)NC1=O` [Compound 3, c(D-Leu-L-Nle-D-Trp-L-His-Gly*-L-Lys)] (cyclo(K[dL][Nle][dW]H[azaGly])), the “Inhibition of amyloidogenic activity(%)” value on Aβ40 (Aβ:peptide 1:1) amounted to 83.7%; at Aβ40 (Aβ:peptide 1:5), 81.3%; on Aβ40 (Aβ:peptide 1:10), 83.7%. Also, the toxicity and longevity result with CL2006 C. elegans strain was “no toxicity and no influence on wild type CL802 worm longevity”.

For the compound `CCCC[C@@H]1NC(=O)[C@@H](CC(C)C)NC(=O)[C@H](CCCCNC(=O)CN2CCN(CC(=O)O)CCN(CC(=O)O)CC2)NC(=O)NNC(=O)[C@H](Cc2c[nH]cn2)NC(=O)[C@@H](Cc2c[nH]c3ccccc23)NC1=O` [^64Cu-conjugate 43, metal not drawn] (cyclo([dL][Nle][dW]H[azaGly]K(NOTA))), in the data set on Aβ species, the “Aβ uptake relative to ^64Cu-1-NOTA” value is on record as “approximatively five times superior” and the “Aβ uptake (activity in the Aβ species)” value is 2.030±0.056 % ID/g. In the data set with Aβ species (Tg female 5×FAD AD mice, 9% sucrose in saline, 1-day post-injection), the “uptake into the thalamus” value is reported as “increased with age from 44 to 72 days”. For the same compound, the brain uptake entry in the data set with Aβ species (control 44 day-old WT mouse, 1-day post-injection) is given as “very low”.

Turning to `[11CH3]Nc1ccc(-c2nc3ccc(O)cc3s2)cc1` [^11C-PIB, 2-(4′-[^11C]methylaminophenyl)-6-hydroxybenzothiazole, reference compound], in the data set with Aβ species (5×FAD mice, ^11C-PIB), the “uptake in the cortex” value is 1.038±0.028 % ID/g.

Regarding `CCCC[C@@H]1NC(=O)[C@@H](CC(C)C)NC(=O)[C@H](CCCCNC(=O)CN2CCN(CC(=O)O)CCN(CC(=O)O)CC2)NC(=O)[C@@H](CO)NC(=O)[C@H](Cc2c[nH]cn2)NC(=O)[C@@H](Cc2c[nH]c3ccccc23)NC1=O` [^64Cu-1-NOTA, metal not drawn] (cyclo([dL][Nle][dW]H[dS]K(NOTA))), the organ uptake result in data set [1] (Intra-lipid (20% IV fat-emulsion) formulations) is “lower uptake in the lungs and a higher uptake in the gastrointestinal tract and gallbladder”; in data set [1] (formulated in 8% DMSO), “High lung and liver uptake”. Further, the “Aβ uptake (activity in the Aβ species)” value in the data set with Aβ species is given as 0.430±0.010 % ID/g.

As for `CCCC[C@@H]1NC(=O)N(Cc2ccccc2)NC(=O)[C@H](CCCCNC(=O)CN2CCN(CC(=O)O)CCN(CC(=O)O)CC2)NC(=O)[C@@H](CO)NC(=O)[C@H](Cc2c[nH]cn2)NC(=O)[C@@H](Cc2c[nH]c3ccccc23)NC1=O` [^64Cu-conjugate 40, metal not drawn] (cyclo([azaPhe][Nle][dW]H[dS]K(NOTA))), the tissue uptake in data set [2] (5×FAD mice at 4.5 months, read-out: accumulation of activity in the Aβ species) turned out to be 0.165 ± 0.005 %ID/g. Moreover, the tissue uptake at 1 h in data set [2] (5×FAD mice, 1 h post injection, read-out: uptake in hippocampus) turned out to be 1.28 ± 0.034 %ID/g. The tissue uptake at 20 h in data set [2] (6-month old 5×FAD mice, 20 h post-injection, read-out: Aβ uptake (activity in the Aβ species)) is 2.1 ± 0.059 %ID/g. For the same compound, in the data set on Aβ species (5×FAD mice, post injection), the “time of highest activity value in Aβ species” value turned out to be 1 days. Also, in the data set on Aβ species, the “Aβ uptake relative to ^64Cu-1-NOTA” value was “approximatively five times superior” and the “Aβ uptake (activity in the Aβ species)” value is 2.102±0.059 % ID/g.
